What all share (assay): ITC
Background: ITC needs no label: the signal is the heat of the interaction.

Experiment [1] deals with AnkG R6-16 (UniProt O70511).
In experiment [2] the target is T1, AnkG ANK repeats (R1-24, residues 38-855) (UniProt O70511 38-855).
T1 sequence: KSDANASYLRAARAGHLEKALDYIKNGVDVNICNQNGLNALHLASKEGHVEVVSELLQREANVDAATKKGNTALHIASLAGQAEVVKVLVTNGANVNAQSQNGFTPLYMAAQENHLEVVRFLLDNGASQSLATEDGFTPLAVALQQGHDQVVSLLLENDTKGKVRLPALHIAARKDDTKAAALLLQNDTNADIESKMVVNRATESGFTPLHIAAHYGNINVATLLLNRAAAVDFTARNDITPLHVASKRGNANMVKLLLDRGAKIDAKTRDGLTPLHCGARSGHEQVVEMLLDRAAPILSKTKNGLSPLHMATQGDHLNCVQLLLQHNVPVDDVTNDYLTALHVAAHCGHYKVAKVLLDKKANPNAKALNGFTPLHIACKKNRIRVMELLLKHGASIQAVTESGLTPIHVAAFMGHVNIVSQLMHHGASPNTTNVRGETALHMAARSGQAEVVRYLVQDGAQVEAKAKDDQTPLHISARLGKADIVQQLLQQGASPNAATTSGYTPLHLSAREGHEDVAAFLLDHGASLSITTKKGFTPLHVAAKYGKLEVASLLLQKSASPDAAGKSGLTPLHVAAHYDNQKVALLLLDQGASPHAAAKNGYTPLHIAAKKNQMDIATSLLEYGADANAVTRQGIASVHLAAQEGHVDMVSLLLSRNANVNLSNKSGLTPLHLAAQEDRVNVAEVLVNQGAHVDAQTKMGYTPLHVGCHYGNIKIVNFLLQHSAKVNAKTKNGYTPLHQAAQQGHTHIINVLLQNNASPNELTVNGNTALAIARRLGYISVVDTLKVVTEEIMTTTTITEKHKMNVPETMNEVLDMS

The target in experiment [3] is T2, AnkG 275-571 (AnkG R8-16) (UniProt O70511 275-571).
T2 sequence: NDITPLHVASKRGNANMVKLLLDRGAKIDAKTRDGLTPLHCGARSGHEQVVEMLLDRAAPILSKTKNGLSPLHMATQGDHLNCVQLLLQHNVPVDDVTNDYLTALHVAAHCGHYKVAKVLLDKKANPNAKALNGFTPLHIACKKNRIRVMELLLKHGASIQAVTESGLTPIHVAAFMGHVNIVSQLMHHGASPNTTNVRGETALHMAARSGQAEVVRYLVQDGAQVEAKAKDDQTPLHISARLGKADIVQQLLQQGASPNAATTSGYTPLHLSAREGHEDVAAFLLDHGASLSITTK

One may read the Kd as the free concentration of one partner at which half of the binding sites on the other are occupied at equilibrium, for simple one-to-one binding. Low readings indicate a tighter complex, high ones a looser complex.

Chain of AnkG R6-16 (O70511 whole entry, the tested form may be a part): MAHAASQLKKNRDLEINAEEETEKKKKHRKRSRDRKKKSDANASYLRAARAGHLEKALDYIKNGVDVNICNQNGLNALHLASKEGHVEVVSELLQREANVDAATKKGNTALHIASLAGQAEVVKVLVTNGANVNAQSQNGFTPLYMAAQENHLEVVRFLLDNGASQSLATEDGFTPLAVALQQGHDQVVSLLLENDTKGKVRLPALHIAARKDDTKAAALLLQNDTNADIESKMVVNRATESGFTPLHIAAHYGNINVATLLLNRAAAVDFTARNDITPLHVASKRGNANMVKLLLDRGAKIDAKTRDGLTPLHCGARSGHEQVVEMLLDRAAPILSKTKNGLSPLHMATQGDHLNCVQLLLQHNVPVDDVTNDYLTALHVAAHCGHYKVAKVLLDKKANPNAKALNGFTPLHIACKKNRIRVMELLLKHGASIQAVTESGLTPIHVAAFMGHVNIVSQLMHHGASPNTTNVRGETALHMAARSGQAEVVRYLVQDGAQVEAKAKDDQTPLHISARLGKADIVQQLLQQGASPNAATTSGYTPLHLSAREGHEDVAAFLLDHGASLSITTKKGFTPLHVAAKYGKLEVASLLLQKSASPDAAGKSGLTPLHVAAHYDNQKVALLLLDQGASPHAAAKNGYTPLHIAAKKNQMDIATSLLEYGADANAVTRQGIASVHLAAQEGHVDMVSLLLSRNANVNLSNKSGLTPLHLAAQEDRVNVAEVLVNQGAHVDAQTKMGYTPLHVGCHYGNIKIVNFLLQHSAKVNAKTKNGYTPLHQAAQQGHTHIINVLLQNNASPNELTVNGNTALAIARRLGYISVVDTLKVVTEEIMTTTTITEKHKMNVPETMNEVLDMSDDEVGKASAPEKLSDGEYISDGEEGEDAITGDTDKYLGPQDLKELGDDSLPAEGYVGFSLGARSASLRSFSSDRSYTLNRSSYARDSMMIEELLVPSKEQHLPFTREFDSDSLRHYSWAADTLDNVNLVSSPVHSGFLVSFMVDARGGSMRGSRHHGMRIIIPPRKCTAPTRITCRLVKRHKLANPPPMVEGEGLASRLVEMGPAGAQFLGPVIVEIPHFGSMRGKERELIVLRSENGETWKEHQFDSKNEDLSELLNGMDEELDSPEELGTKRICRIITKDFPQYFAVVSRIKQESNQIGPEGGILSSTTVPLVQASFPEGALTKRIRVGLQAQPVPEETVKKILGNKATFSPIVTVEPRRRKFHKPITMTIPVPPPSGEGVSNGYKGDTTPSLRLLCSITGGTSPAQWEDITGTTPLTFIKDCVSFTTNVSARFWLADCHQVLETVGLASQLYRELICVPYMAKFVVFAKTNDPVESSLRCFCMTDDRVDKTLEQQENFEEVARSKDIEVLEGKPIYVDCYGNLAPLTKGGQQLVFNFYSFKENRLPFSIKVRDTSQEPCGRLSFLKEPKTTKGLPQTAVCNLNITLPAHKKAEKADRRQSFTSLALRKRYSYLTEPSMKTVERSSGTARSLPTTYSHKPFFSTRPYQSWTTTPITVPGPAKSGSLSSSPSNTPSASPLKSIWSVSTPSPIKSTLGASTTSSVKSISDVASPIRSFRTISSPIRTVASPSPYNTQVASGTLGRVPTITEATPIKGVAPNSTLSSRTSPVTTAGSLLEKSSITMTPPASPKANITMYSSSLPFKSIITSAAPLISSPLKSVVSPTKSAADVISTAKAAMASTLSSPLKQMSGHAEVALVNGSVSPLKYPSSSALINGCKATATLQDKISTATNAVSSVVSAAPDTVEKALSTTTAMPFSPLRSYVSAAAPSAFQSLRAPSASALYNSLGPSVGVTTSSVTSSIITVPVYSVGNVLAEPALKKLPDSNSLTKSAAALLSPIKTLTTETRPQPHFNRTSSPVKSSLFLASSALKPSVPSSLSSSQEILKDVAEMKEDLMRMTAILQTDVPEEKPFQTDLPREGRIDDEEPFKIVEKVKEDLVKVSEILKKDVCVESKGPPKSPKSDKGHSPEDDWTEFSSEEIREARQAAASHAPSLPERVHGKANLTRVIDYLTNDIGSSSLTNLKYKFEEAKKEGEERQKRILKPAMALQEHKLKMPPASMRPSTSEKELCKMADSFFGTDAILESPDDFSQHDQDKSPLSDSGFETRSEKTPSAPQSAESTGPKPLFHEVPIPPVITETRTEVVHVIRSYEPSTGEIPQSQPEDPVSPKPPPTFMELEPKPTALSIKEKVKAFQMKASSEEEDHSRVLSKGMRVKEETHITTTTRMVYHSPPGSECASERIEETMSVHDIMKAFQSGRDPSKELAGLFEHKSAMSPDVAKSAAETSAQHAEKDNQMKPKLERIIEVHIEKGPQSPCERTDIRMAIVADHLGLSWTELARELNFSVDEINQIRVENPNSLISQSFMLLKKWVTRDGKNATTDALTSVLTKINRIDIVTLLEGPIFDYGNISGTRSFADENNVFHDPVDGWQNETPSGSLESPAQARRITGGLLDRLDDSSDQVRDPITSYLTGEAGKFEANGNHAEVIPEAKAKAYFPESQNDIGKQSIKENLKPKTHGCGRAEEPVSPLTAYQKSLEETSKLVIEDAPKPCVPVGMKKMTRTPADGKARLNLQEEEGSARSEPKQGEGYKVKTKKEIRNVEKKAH

Consider “Nfasc ankyrin binding domain (ABD), residues 1187-1214 (from UniProt P97685 1187-1214) (domain or fragment)”, for which the dissociation constant (Kd) in experiment [1] came out at 290 nM.

B1: Nfasc ankyrin binding domain (ABD), residues 1187-1214 (domain or fragment)
chain: SDDSLVDYGEGGEGQFNEDGSFIGQYTV
Take B1: the Kd is roughly 220 nM in experiment [2] and roughly 1200 nM in experiment [3].

B2: Nfasc 1198-1214 E1204A (peptide)
chain: GEGQFNADGSFIGQYTV
Consider B2, for which the “fold decrease in binding affinity against Nfasc 1198-1214 WT” value in experiment [2] was roughly 27 fold.

B3: Nfasc 1198-1214 Y1212E (peptide)
chain: GEGQFNEDGSFIGQETV
Consider B3, for which the “fold decrease in binding against Nfasc 1198-1214 WT” value in experiment [2] was roughly 9 fold.

B4: Nfasc 1198-1214 F1202Q (peptide)
chain: GEGQQNEDGSFIGQYTV
As to B4, the “fold decrease in binding against Nfasc 1198-1214 WT” value in experiment [2] was greater than 20 fold.

Values taken from publication doi:10.1101/2022.04.27.489743 (bioRxiv, 2022).
